Results from patent US20230059489A1.
Changes are numbered by the printed parent chain.

B1: P5A3 (scFv format) (scFv, part only; not given: linker, domain order, tags, V domains shown, not shown: another chain or arm of the molecule; small tags and cut ends)
VH: QVQLVQSGAEVKKPGSSVKVSCKASGGTFSSYYIGWVRQAPGQGLEWMGGIIPWFGTANYAQKFQGRVTITADKSTNTAYMELSSLRSEDTAVYYCAADHHDSPSGYTSGGFDVWGQGTLVTVSS
VL: QSALTQPASVSGSPGQSITISCTGTSSDVGGYNYVSWYQQHPGKAPKLMIYEVSKRPSGVPDRFSGSKSGNTASLTVSGLQAEDEADYYCSSYAGSNTVVFGGGTKLTVL
B2: P5F7 (scFv format) (scFv, from a related filing, part only)
scFv: EVQLLESGGGLVQPGGSLRLSCAASGFTFSSYAMNWVRQAPGKGLEWVSSISGGGRSTYYADSVKGRFTISRDNSKNTLYLQMNSLRAEDTAVYYCARDLSPSDVGWGYGFDIWGQGTLVTVSSGGGGSGGGGSGGGGSEIVLTQSPATLSLSPGERATLSCRASQSVSSNLAWYQQKPGQAPRLLIYDTFTRATGIPARFSGSGSGTDFTLTISRLEPEDFAVYYCQQYGSSPPTFGQGTRLEIK
B3: P4H11 (scFv format) (scFv, part only; not given: linker, domain order, tags, V domains shown, not shown: another chain or arm of the molecule; small tags and cut ends)
VH: EVQLLESGGGLVQPGGSLRLSCAASGFTFSSYAMNWVRQAPGKGLEWVSSISGGGRSTYYADSVKGRFTISRDNSKNTLYLQMNSLRAEDTAVYYCARDLSPSDVGWGYGFDIWGQGTLVTVSS
VL: EIVLTQSPGTLSLSPGERATLSCRASQSVSNTYLAWYQQKPGQAPRLLIYDTSSRATGIPDRFSGSGSGTDFTLTISRLEPEDFAVYYCQQYGSSLTFGQGTKVEIK
B4: P4C7 (scFv format) (scFv, part only; not given: linker, domain order, tags, V domains shown, not shown: another chain or arm of the molecule; small tags and cut ends)
VH: QVQLVQSGAEVKKPGSSVKVSCKASGGTFSSYTISWVRQAPGQGLEWMGGIIPAFGIANYAQKFQGRVTITADKSTSTAYMELSSLRSEDTAVYYCAKGGSYSLDYFDIWGQGTLVTVSS
VL: B3 VL with S28Y, N31A, T32S, Y33L, D51G, T52A, S54T, G93A, S94R, L96S
B5: P9F1 (scFv format) (scFv, part only; not given: linker, domain order, tags, V domains shown, not shown: another chain or arm of the molecule; small tags and cut ends)
VH: EVQLLESGGGLVQPGGSLRLSCAASGFIFSSFAMSWVRQAPGKGLEWVSDISGSGASTYYADSVKGRFTISRDNSKNTLYLQMNSLRAEDTAVYYCASASGGSGSYWPYMDPWGQGTLVTVSS
VL: QSVLTQPPSASGTPGQRVTISCSGSGSNIGSNYVYWYQQLPGTAPKLLIYRNNQRPSGVPDRFSGSKSGTSASLAISGLRSEDEADYYCAAWDGSLSRPVFGTGTKLTVL
B6: P1B4 (scFv format) (scFv, part only; not given: linker, domain order, tags, V domains shown, not shown: another chain or arm of the molecule; small tags and cut ends)
VH: QVQLVQSGAEVKKPGSSVKVSCKASGGVFSRYALSWVRQAPGQGLEWMGGIIPMLGFANYAQKFQGRVTITADESTSTAYMELSSLRSEDTAVYYCATLDFGALDYWGQGTLVTVSS
VL: EIVLTQSPGTLSLSPGERATLSCRASQSVPNEQLAWYQQKPGQAPRLLIYDASSRATGIPDRFSGSGSGTDFTLTISRLEPEDFAVYYCQQYGSPPLTFGQGTKVEIK
B7: P1A5 (scFv format) (scFv, part only; not given: linker, domain order, tags, V domains shown, not shown: another chain or arm of the molecule; small tags and cut ends)
VH: B6 VH
VL: EIVLTQSPGTLSLSPGERATLSCRASQAVDSSDLAWYQQKPGQAPRLLIYDAYTRPSGIPDRFSGSGSGTDFTLTISRLEPEDFAVYYCQQYGSSPLTFGGGTKLEIK
B8: P3E10 (scFv format) (scFv, part only; not given: linker, domain order, tags, V domains shown, not shown: another chain or arm of the molecule; small tags and cut ends)
VH: QVQLVQSGAEVKKPGSSVKVSCKASGGTFSSYAIQWVRQAPGQGLEWMGGIVGSWGLANYAQKFQGRVTITTDKSTSTAYMELSSLRSEDTAVYYCATSAFGELASWGQGTLVTVSS
VL: B6 VL with N31S, E32S, P95S
B9: P7H3 (scFv format) (scFv, part only; not given: linker, domain order, tags, V domains shown, not shown: another chain or arm of the molecule; small tags and cut ends)
VH: EVQLLESGGGLVQPGGSLRLSCAASGFTFSSYAMHWVRQAPGKGLEWVSAISGSGGSTYYADSVKGRFTISRDNSKNTLYLQMNSLRAEDTAVYYCARGTRWWWGDAFDHWGQGTLVTVSS
VL: QSVLTQPPSVSVAPGKTARITCGGNNIGSKSVHWYQQKPGQAPVLVIYYDSDRPSGIPERFSGSNSGNTATLTISRVEAGDEADYYCQVWDSSTAWVFGGGTKLTVL

Molecular target: human FLT3 (hFLT3) (human) (UniProt P36888)
Test: SPR, Table 6, scFv format; set-up and antigen species not described

human FLT3 (hFLT3) (human), sequence (P36888 27-543 limits assumed): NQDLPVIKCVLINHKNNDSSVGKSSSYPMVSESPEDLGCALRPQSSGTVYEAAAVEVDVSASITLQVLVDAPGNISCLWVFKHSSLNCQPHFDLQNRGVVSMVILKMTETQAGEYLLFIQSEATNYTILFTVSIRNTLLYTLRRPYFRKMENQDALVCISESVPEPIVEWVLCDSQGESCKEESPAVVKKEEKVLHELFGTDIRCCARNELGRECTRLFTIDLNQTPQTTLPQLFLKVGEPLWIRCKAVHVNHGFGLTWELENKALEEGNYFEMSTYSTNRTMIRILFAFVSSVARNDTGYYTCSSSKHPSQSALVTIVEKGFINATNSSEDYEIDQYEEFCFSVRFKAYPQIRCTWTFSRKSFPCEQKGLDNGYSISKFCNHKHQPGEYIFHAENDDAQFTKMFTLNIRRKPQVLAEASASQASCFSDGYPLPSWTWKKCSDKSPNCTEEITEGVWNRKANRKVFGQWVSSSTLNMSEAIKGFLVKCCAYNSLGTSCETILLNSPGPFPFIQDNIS

| Binder | Kd | koff | kon | t1/2 |
| --- | --- | --- | --- | --- |
| B1 | 216 nM | 0.0175 s⁻¹ | 81000 M⁻¹ s⁻¹ | 0.7 min |
| B2 | 1 nM | 0.000197 s⁻¹ | 189000 M⁻¹ s⁻¹ | 59 min |
| B3 | 58.3 nM | 0.00933 s⁻¹ | 160000 M⁻¹ s⁻¹ | 1 min |
| B4 | 13.6 nM | 0.00164 s⁻¹ | 121000 M⁻¹ s⁻¹ | 7 min |
| B5 | 126 nM | 0.0286 s⁻¹ | 226000 M⁻¹ s⁻¹ | 0.4 min |
| B6 | 27.3 nM | 0.00327 s⁻¹ | 120000 M⁻¹ s⁻¹ | 3.5 min |
| B7 | 1.1 nM | 0.000292 s⁻¹ | 259000 M⁻¹ s⁻¹ | 40 min |
| B8 | 65.1 nM | 0.0112 s⁻¹ | 172000 M⁻¹ s⁻¹ | 1 min |
| B9 | 9.1 nM | 0.00187 s⁻¹ | 205000 M⁻¹ s⁻¹ | 6.2 min |
